Values of other authors as cited in publication PMC4526808.
pKd: −log10 of the molar value. Read-outs that look alike come from different tables or passages of the source.

Tests used:
PKA RIIα D/D domain [1] = target: PKA RIIα D/D domain (UniProt P13861)
PKA RIIα D/D domain [2] = target: PKA RIIα D/D domain (UniProt P13861); remark: listed apart in the source
PKA RIα D/D domain [3] = target: PKA RIα D/D domain (UniProt P10644)
PKA RIIα D/D domain [4] = target: PKA RIIα D/D domain (UniProt P13861); remark: listed apart in the source
PKA RIα D/D domain [5] = target: PKA RIα D/D domain (UniProt P10644); remark: listed apart in the source

Sequence of UniProt P13861 (P13861 2-45): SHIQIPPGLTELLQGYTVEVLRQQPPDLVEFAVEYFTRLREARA
Sequence of UniProt P10644 (P10644 1-61): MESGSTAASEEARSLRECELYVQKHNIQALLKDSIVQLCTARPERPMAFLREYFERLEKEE

AKAP-is
pKd (PKA RIIα D/D domain [1]): 9.40

Ht31
pKd (PKA RIIα D/D domain [2]): 8.66
pKd (PKA RIα D/D domain [3]): 5.89

RIAD
pKd (PKA RIIα D/D domain [4]): 5.74
pKd (PKA RIα D/D domain [5]): 9.00
